In the DeepSol protein solubility set:

Test: soluble on expression in E. coli; label from the status in PepcDB or PDB records

Sequence	soluble on expression in E. coli
MGSDKIHHHHHHMAQMTSQTLYQALWNSADILRSKMDASEYKNYLLGLIFYKYLSDRMVVYASDQLEEKTTDLDKAQQIYTDAYNDKDLHDDLISNVSDEFGYHIQPDLTFTALIDKIDHGTFQLEDLSQSFRDIEQSSEFFSGLFEDVDLYSRKLGATPQKQNQVISDVMKQISTLDLVGQNTNDILGDAYEYLIGQFASDSGKNAGEFYTPQSVSRLITQIAMHGKEDVRGFTIYDPTMGSGSLLLNARRYSNERLSINYFGQELNTSTYNLARMNMILHGVPINNQHLHNADTLDQDWPIEEPTNFDAVVMNPPYSAHWQPSKGTENDPRFVSYGLAPKSKADFAFLLHGYYHLKDTGVMCIVLPHGVLFRGGAEGRIRKALLENGAIDTVIGLPANIFFNTSIPTTVTVLKKSRTTRDVLFIDASKEFEKAKNQNHLTDDNIQKILETCINRKDVDKYAHLASFDEIKENDFNLNIPRYVDTTEPEKPVDVVKVVADIKKNDEEIARLSSELAKNFDDLVANNDEAAKQLTALKELFKNE	not soluble
SEVERKIVSLEALYIVYDADGTVAGELLYLLRKWLGKGHCAACDITHGPRKVKPEWTILQKTGWLGVPLFNIHRDEMEPKLRSAVSCALPCVAALVDNGDYVLLLQPEDLESCKGQVSKLQEKIVEALKDFGFQVNESFTSVVTSDLSDTCPSTLDREKEEDDAVVPF	soluble
GILELAGTVGCVGPRTPIAYMKYGCFCGLGGHGQPRDAIDWCCHGHDCCYTRAEEAGCSPKTERYSWQCVNQSVLCGPAENKCQELLCKCDQEIANCLAQTEYNLKYLFYPQFLCEPDSPKCD	soluble
MTPDELARLTGYSRQTINKWVRKEGWTTSPKPGVQGGKARLVHVNEQVREYIRNAERPEGQGEAPALSGDAPLEVLLVTLAKEMTPVEQKQFTSLLLREGIIGLLQRLGIRDSK	not soluble
MKKERVDVLAFNQGLFETREKAKRSVMAGLVYNDKNERLDKPGEKISVETPLHTKGQVMPYVSRGGLKLEKALNVFAINVQGKTMLDIGSSTGGFTDVALQNGARLSYALDVGYNQLAWKIRQDERVVVMERTNFRYSKPEDFTEGVPDIATIDVSFISLRLILPPLHDILKKGGSVVALIKPQFEAGKEFVGKKGIVRDPETHQMVVEEITRFAMNNGYDVKNLDFSPITGGEGNIEFLAHLVSVEGEGSYQAPESIEEVVAHAHQKLAE	not soluble
MGSDKIHHHHHHEEEEQKPAYGKIDVAVSVTLPQPESVNTLTRAGGPYTDTDIKNADLLIFDKDAKFMERVKVENDRLVITGTGINFTVRLDATSERRIIHLVANGRSADGTSDRLNFGDITPGMTENAAISSLQTASLEHVDEGESTLLNHVMPLVMWGRFALNGINIVTKAEGVKLLRSTACIQVKKGNGGGNTGLDDFVIEGITVHQGACHGFLAPTDCTGEVNTPVVTNPVTGGIYLDYRKGWVNGAEPSLYIYERNCSASDYMGVVIAARYKGKKGYYKVVMNGNDGSPLNIVRNHRYIVTVVGVNGPGYESPDIAVASAPSNALKVELTDEDTDLPCIVADGQYRMASSNNVFSLYGKTGVTTSATGVDICTVYSSRGIQPVLTLPDDCNWLTNLSAQALGSNKYKITGDFTSAANDAVATTLTMTCDNLSQPVRVSWNPIISDQKDTDSFVLDLVGSTDRNWTVRVLNPTSPGWLFLHPSAASPGALPGDGMVSELSSKYSSHAYLHVAFGASRRGTVQMTSASSGETVARKIVVIQ	not soluble
MSLTTNPVKHTDEHIGALYFSDLPGISNLTCTANYIGGKFWTTAHHCVEGRSRFVGFIEQSDGQYAGIEHVYTKSSDYDIALIKVGSGIDAEQFSLTRSRPAVGKMLEVVGFAVVNPFSSRATMEVTNSNTVANYPMSNLYYKDVFSAKPAGSFPYVISGGDSGAAVWSGETMYGIASGSNGSTKNLAANVGPHVSWIEQTMQNNSNSSPYEILQAFRGGLATSYPKYNQIRDLVDSSEGHHHHHH	not soluble
MTLEEARKRVNELRDLIRYHNYRYYVLADPEISDAEYDRLLRELKELEERFPELKSPDSPTLQVGARPLEATFRPVRHPTRMYSLDNAFNLDELKAFEERIERALGRKGPFAYTVEHKVDGLSVNLYYEEGVLVYGATRGDGEVGEEVTQNLLTIPTIPRRLKGVPERLEVRGEVYMPIEAFLRLNEELEERGERIFKNPRNAAAGSLRQKDPRITAKRGLRATFYALGLGLEEVEREGVATQFALLHWLKEKGFPVEHGYARAVGAEGVEAVYQDWLKKRRALPFEADGVVVKLDELALWRELGYTARAPRFAIAYKFPAEEKETRLLDVVFQVGRTGRVTPVGILEPVFLEGSEVSRVTLHNESYIEELDIRIGDWVLVHKAGGVIPEVLRVLKERRTGEERPIRWPETCPECGHRLLKEGKVHRCPNPLCPAKRFEAIRHFASRKAMDIQGLGEKLIERLLEKGLVKDVADLYRLRKEDLVGLERMGEKSAQNLLRQIEESKKRGLERLLYALGLPGVGEVLARNLAARFGNMDRLLEASLEELLEVEEVGELTARAILETLKDPAFRDLVRRLKEAGVEMEAKEKGGEALKGLTFVITGELSRPREEVKALLRRLGAKVTDSVSRKTSYLVVGENPGSKLEKARALGVPTLTEEELYRLLEARTGKKAEELV	soluble
MTKTVEMVITGAQVLNVYTREFEATSLWIDHGRIISNLRDEPYIAAQHVDATGQWIVPGMIDAHVHMESSMVAPSELGKVLLQHGVTTIATDPHELANVAGLEHHHHHH	not soluble
MFVFGAYWFDCGERAVLPANSRGALRPQCTRLRFWRGRYWHRGAVSALRRVRPLSASTPSPRVLDGSQSLADTPDNVQQLLQHMSQELDSVVQSMVHLEEYALEQVEKLKGAMEADLRKLALYEEEQAFAQKLTEQLQKKEGAVFEAMRHFLFHVVGLQEQTVAITNELQVLHEFVSENHERVELVLESLRERGLFGSRQDVFEGEVKKKLDRFDPEI	not soluble
MVMETESKFHVLAVDDSLFDRKMIERLLQKSSCQVTTVDSGSKALEFLGLRVDDNDPNALSTSPQIHQEVEINLIITDYCMPGMTGYDLLKKVKESAAFRSIPVVIMSSENVPARISRCLEEGAEEFFLKPVKLADLTKLKPHMMKTKLKKESEKPVAIEEIVVSKPEIEEEEEESSVIEILPLHQEIESEQLEPMLSSNKRKAMEEVVSTDRSRPKYNDITTSV	not soluble
MYKVLRKERLTPKAVLLEVQDERAKLVKPGQYALVQANEESEPIPLSFLDVKESSYTFLVEVGGRATLEIAELVEEKIQFIEAPCGSPFPVKNYGKVLLISKNWGVAPLINIGRALKEESNEIYFVHVAEDEERVFLTKEASEISEEFLLFTEDGSLGEEGNSEWALGYFIENFGKPDLIVSAGSNLDSQMINRFAEERNIPHIAMVNAHILDANGLCLACRVLVEGQEKLACIDGPWFDASKVDWDYAIQKEAFYKEEEEKALKTFLRELQRLKARGR	not soluble
MAHHHHHHMIYGKDGKYPVGEILEYNNYNLSGQSLVEKKEREKLSIDYYEDLRKAAECHRQVRKHMQAFIKPGKKMIDIAQETERKTKELILAEKLKCGWGFPTGCSLNHCAAHYTPNYGDETVLKYDDVCKLDFGVHVNGYIIDCAFTIAFNEKYDNLIKATQDGTNTGIKEAGIDARMCDIGEAIQEAIESYEIELNQKIYPIKAISNLRGHSINKYIIHGGKCVPIVRQKEKNEIMEEGELFAIETFASTGKGYVNHENECSHYMRNPEKQFVPIRLNSAKTLLKVINDNFDTLPFCNRWLDDLGQTRHFMALKTLIDLNIVEPYPPLCDIKNSFTSQMEHTILLRPTCKEVLSRGPDF	soluble
IGIVNDMPLAVEALRRALAFEPQHQIVWVASNGAEAVTQCAADTPDVVLMDLLMPVMDGVEATRRIMAESPCAIVIVTVDIEQNVHRVFEAMGYGALDAVNTPALGIGNPQTAAAPLLRKIQNVGWLIGQRDNRGKVQVVPPKAGGARQRLVAIGASAGGPASLAVLLKQLPASFNAAVVLVQHVDEVFAAGMAEWLASESKLPVRLARDGEPPIPGQILLAGTNNHIRLLRNGSLVYTAEPRSFVYRPSIDVFFESVANYWRGDAVGVLLTGMGRDGAQGLKQMRERGFLTIAQDQASCAVYGMPKAAAAIDAAVQILSLEKIA	not soluble
MAKLENPILMAKIGGAQGLRGEVRVSTYTDDPMALGDYGNLVTADGRVFEILEVREGKNVVVVRFRGINDRNAAESLNGLELFIERDNLPDDELDDDEFYYADLEGLEAVDAEGKSYGAVSAVYDFGAGDLLELKGAGRRPALIPFSEAAVLEIDLEAGRILIDPMAAGLIDNPDDKDQNGMSPFGKKLEHHHHHH	not soluble
MIPKKSSFIVTYAFRIKPTSPQDSGSNRMIIVITPTYKRITRLADITRLANTLSQVENLHWIVIEDGESTIPNVQNILERSELLYTYVAHRTASGYPARGWYQRDMALKLIRTNPSQILGEHEGEAVIYFADDDNSYDLRLFEDYIRNVKKLGLWAVGLAGGAAVEAPNVVNKKVTSFNFKWKSKRRFAVDMAGFAINLDYILNSSAVFGTECKRGDGAPETCLLEDLGFDLNDIEPFGYEKEASEIYSSLYSMVFYLQKNNEILVWHTKTSYSGMKVKEAEKFGYFVEP	not soluble
SVTIDHTTENAAPAQAPVSDRAWALFRALDGKGLVPDGYVEGWKKTFEEDFSPRRGAELVARAWTPRRGAELVARAWTDPEFRQLLLTDGTAAVAQYGYLGPQGEYIVAVEDTPTLKNVIVCSLCSCTAWPILGLPPTWYKSFEYRARVVREPRKVLSEMGTEIASDIEIRVYDTTAETRYMVLPQRPAGTEGWSQEQLQEIVTKDCLIGVAIPQVPTV	soluble
MKLIAESGSTRTEWALVEDNHLVQRVFTEGLNPFFQTRREISRSVRLGLPESFFKKKLDQVYYYGAGCSSYEKKNILGASLVAQFKTPIQVESDLLAAARGLFKCEAGIACILGTGSNSCFYDGKIIVKNVKAAGYILGDEGSGAVLGKLFLADLLKGLAPKELANEFHEKFRISVNDVMESVYNLPFPNRFLGTIAYFLGDYMDNEYVYNLLTNNLRSFFNRNVCQYDYINYPIRFVGSLAYAYPDILQEVAQEFGVEIDVIEETPMNGLIEFHSMNIEESMAGDPLEHHHHHH	not soluble
MIPTATYRLQFRNGMTFDRAAALVPYLKNLGISHLYASPIFTATKASTHGYDVTDANEIEPSIGGREGFERLVAELKAQGLGLIIDIVPNHMASSLENAWWRDVLEYGKESRYARHFDIDWSRRLTLPFLGDTFDAVLENGEIAIKPDPATGKPAFAYYDNYYPLAPATWQGREAEILALTDKAAIADLHERQPWKLMSWRDAARSLSYRRFFEVTGLVGMRVEDKTVFDDTHRLILELVRTGAVDGLRIDHIDGLADPKAYLARLRQEVGPACYITVEKILAKGEQLPDDWPVSGTTGYEFIASLAEVLVDDEQIDNLRQAYETVKGAPVDMRAELRAAKLLMVDRNFEGEFTRLLALALSIASELQIAQEESVVRQALRELLIAFPVYRTYGTAEGLPPTDICLLHRIVERVKTLETPPQPEALTFLSRLLTGDVPASSQEEATQFRVRFQQLTGPLMAKSVEDTLFFRQNMGLALNEVGAEPVTHHFSIERFHHEMKTRQARQPDALSGTSTHDTKRGEDARARLYTLTEAPEQWSECLARWRQMNQTHVKFLNDGTAPKSADTWMLYQALTGVWPPVLQPQDETGLNALKTRFEAFVEKALREAKLRTDWVDSNEAYETAMLDYARYLLAPDNQTFLQDFYRSLQPFIRAGLVNSLTQTVIKLTAPGVPDIYQGSEALNFSLVDPDNRREPDFATLAQQLDQLTPGVFSREESWLNGQVNQYVTAALLRLRQQNHELFRFGDYIPLRAVGQRADKVIAYARVNHDDALIVVAPRLVFAECDGLLSQSHSGFWSGTDIIIPGQLNQHRYRNVLTQERLMPGERLSLASHQGGVLVLMSD	not soluble
